Consider four molecules from doi:10.1101/590273, “The structure of an injectisome export gate demonstrates conservation of architecture in the core export gate between flagellar and virulence type three secretion systems” (bioRxiv, 2019).

“And” between values parts separate entries of the source, which are not always exact repeats. Equal values may be shown once.

B1: Salmonella enterica serovar Typhimurium FliQ (natural protein)
chain: MTPESVMMMGTEAMKVALALAAPLLLVALITGLIISILQAATQINEMTLSFIPKIVAVFIAIIVAGPWMLNLLLDYVRTLFSNLPYIIG
notes: FliQ, flagellar export gate component of Salmonella enterica serovar Typhimurium; source: expression of the complete operon
B2: Shigella flexneri SctS (Spa9) (natural protein)
chain: MSDIVYMGNKALYLILIFSLWPVGIATVIGLSIGLLQTVTQLQEQTLPFGIKLIGVSISLLLLSGWYGEVLLSFCHEIMFLIKSGV
notes: Spa9 (SctS), export gate component of the Shigella flexneri virulence type three secretion system; expressed from the complete operon; Two to four copies stand in the complexes seen (SctR5S2T1, SctR5S3T1, SctR5S4T1)
B3: Shigella flexneri SctR (Spa24) (natural protein)
chain: MLSDMSLIATLSFFTLLPFLVAAGTCYIKFSIVFVMVRNALGLQQVPSNMTLNGIALIMALFVMKPIIEAGYENYLNGPQKFDTISDIVRFSDSGLMEYKQYLKKHTDLELARFFQRSEEENADLKSAENNDYSLFSLLPAYALSEIKDAFKIGFYLYLPFVVVDLVISSILLALGMMMMSPITISVPIKLVLFVALDGWGILSKALIEQYINIPA
notes: Spa24 (SctR), export gate component of the Shigella flexneri virulence type three secretion system; expressed from the complete operon; Five copies stand in the SctR5S4T1 complex
B4: Salmonella enterica serovar Typhimurium FliP (natural protein)
chain: QLPGLISQPLAGGGQSWSLSVQTLVFITSLTFLPAILLMMTSFTRIIIVFGLLRNALGTPSAPPNQVLLGLALFLTFFIMSPVIDKIYVDAYQPFSEQKISMQEALDKGAQPLRAFMLRQTREADLALFARLANSGPLQGPEAVPMRILLPAYVTSELKTAFQIGFTIFIPFLIIDLVIASVLMALGMMMVPPATIALPFKLMLFVLVDGWQLLMGSLAQSFYS
notes: FliP, flagellar export gate component of Salmonella enterica serovar Typhimurium; source: expression of the complete operon

The target in series [1] is T1, Salmonella enterica serovar Typhimurium FliR (Salmonella enterica serovar Typhimurium, UniProt P54702 1-264).
T1 construct: FliR, flagellar export gate component of Salmonella enterica serovar Typhimurium; source: expression of the complete operon
T1 sequence: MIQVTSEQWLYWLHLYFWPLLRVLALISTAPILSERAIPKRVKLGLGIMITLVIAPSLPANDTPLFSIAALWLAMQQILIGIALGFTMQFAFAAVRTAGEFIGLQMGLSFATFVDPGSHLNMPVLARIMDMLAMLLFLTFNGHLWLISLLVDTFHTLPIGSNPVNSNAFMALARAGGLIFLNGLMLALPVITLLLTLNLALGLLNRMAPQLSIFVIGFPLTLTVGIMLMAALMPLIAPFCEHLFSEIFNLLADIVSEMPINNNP
The series can be described thus: cryo-EM structure; re-refinement of the original S. Typhimurium FliPQR data (Kuhlen, Abrusci et al. 2018) in RELION-3 with particle polishing and per-particle CTF refinement, 3.65 Å; coordinates remodeled and re-refined. The settings on record: both partners purified.

The target of series [2] is T2, Shigella flexneri SctT (Spa29) (Shigella flexneri, UniProt P0A1M6 1-256).
T2 construct: Spa29 (SctT), export gate component of the Shigella flexneri virulence type three secretion system; expressed from the complete operon; One copy stands in the complex; not shown: dual-strep tag, C-terminal, kept
T2 sequence: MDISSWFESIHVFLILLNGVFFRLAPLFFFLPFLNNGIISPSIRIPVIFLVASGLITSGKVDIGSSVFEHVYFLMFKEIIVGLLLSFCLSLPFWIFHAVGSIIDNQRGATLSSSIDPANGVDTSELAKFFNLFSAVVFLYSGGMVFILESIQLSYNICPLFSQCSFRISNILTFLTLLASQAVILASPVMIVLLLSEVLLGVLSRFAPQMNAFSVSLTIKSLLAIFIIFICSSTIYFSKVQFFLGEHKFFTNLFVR
The series can be described thus: cryo-EM structure; SctRST complex co-expressed from one operon and purified by the strep tag on SctT; 0.01% LMNG in TBS (100 mM Tris, 150 mM NaCl, 1 mM EDTA, pH 8), 8.4 mg/ml; single particle cryoEM, RELION-3, 3.5 Å; further 3D classification gives classes with 2, 3 or 4 SctS. The note with it: both partners purified.

Series [3] deals with B3. The description is as above. The note with it: both partners purified.
Series [4] deals with the molecule itself. Put plainly: cryo-EM structure; re-refinement of the original S. Typhimurium FliPQR data (Kuhlen, Abrusci et al. 2018) in RELION-3 with particle polishing and per-particle CTF refinement, 3.65 Å; coordinates remodeled and re-refined.

For the molecule B1, in series [1], the binding result was “binds”.

With B2, the “stoichiometry N” value in series [2] is 4 and 2 and 3. Moreover, the binding result in series [3] is given as “binds”.

With B3, the binding result in series [2] is reported as “binds”.

As to B4, the binding result in series [1] and in series [4] was “binds” in each case.

As usually defined, the stoichiometry N is a count of units in the complex or per binding partner.
